Test results: paper PMC9677429, “The Role of Electrostatic Interactions in IFIT5-RNA Complexes Predicted by the UBDB+EPMM Method”
Where a chain is given by its changes, count along the chain named. “And” between values parts separate entries of the source, which are not always exact repeats. Identical values can stand only once.

Assays:
Settings in all cases: protein: recombinant; tags: N-terminal His tag (pETG10a); label: 3'-Cy5; single strand, 12 nt
IFIT5 Q41E/K150M/R253M [1] = target: T1, IFIT5 Q41E/K150M/R253M (UniProt Q13325 1-482, Q41E;K150M;R253M); test: MST; apparent; replicates with and without 1 mM Mg2+ pooled; MST: PBS, 5% glycerol, 0.5 mM TCEP, 0.05% Tween20, +/-1 mM MgCl2 (K150M always with 1 mM MgCl2), 10 nM Cy5-RNA, 22 C, 10 min incubation; pH not stated
T1 sequence: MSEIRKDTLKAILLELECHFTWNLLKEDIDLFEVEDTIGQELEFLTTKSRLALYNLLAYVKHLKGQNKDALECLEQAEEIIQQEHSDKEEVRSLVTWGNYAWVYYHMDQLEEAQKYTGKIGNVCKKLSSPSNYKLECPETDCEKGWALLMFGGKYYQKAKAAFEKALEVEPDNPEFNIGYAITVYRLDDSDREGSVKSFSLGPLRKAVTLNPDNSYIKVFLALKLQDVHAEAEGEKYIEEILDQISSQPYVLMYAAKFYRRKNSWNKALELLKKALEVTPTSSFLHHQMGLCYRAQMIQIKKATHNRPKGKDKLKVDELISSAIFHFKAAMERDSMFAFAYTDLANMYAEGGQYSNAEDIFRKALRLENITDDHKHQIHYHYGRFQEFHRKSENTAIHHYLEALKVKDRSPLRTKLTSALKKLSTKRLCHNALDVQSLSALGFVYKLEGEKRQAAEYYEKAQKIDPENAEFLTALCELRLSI

IFIT5 WT [2] = target: T2, IFIT5 WT (UniProt Q13325 1-482); test: as above
T2 sequence: T1 sequence with E41Q, M150K, M253R

IFIT5 K150M = target: T3, IFIT5 K150M (UniProt Q13325 1-482, K150M); test: MST; apparent; 1 mM Mg2+; MST: PBS, 5% glycerol, 0.5 mM TCEP, 0.05% Tween20, +/-1 mM MgCl2 (K150M always with 1 mM MgCl2), 10 nM Cy5-RNA, 22 C, 10 min incubation; pH not stated
T3 sequence: T1 sequence with E41Q, M253R

IFIT5 Q41E/K150M/R253M [3] = target: T1, IFIT5 Q41E/K150M/R253M; test: MST; apparent, single replicate; no Mg2+ (assignment by word order); MST: PBS, 5% glycerol, 0.5 mM TCEP, 0.05% Tween20, +/-1 mM MgCl2 (K150M always with 1 mM MgCl2), 10 nM Cy5-RNA, 22 C, 10 min incubation; pH not stated
IFIT5 WT [4] = target: T2, IFIT5 WT; test: as above
IFIT5 Q41E/K150M/R253M [5] = target: T1, IFIT5 Q41E/K150M/R253M; test: MST; apparent, single replicate; 1 mM Mg2+ (assignment by word order); MST: PBS, 5% glycerol, 0.5 mM TCEP, 0.05% Tween20, +/-1 mM MgCl2 (K150M always with 1 mM MgCl2), 10 nM Cy5-RNA, 22 C, 10 min incubation; pH not stated
IFIT5 WT [6] = target: T2, IFIT5 WT; test: as above

In the case of AAAAAGGAAGGU (ssRNA, 5'-triphosphate) [5'-ppp-AAAAAGGAAGGU-Cy5], the Kd (IFIT5 Q41E/K150M/R253M [1]) is reported as 1980 nM, the Kd (IFIT5 WT [2]) is reported as 13.4 nM and the Kd (IFIT5 K150M) is reported as 204 nM. The Kd (IFIT5 Q41E/K150M/R253M [3]) was 1700 nM, the Kd (IFIT5 WT [4]) was 8.87 nM and the Kd (IFIT5 Q41E/K150M/R253M [5]) was 2340 nM. The Kd (IFIT5 WT [6]) was 12.7 nM and 13.7 nM and 23 nM.
